# Assay results taken from the DeepSol protein solubility set.
# Assay: soluble on expression in E. coli; label from the status in PepcDB or PDB records
row,Sequence,soluble on expression in E. coli
1,MRNELNSNEYNLMASRQSRKILTGTLAAMENVKIGQDENVDCGVVFYDEFKILIPIREMNVSREDKRVIRSMIGAEIDFIVMEFDDENRTAIASRKEAMELRKNLELKKHKVGEKIFVRVTSVGRNNCRVDCYGIEYRVPINEIDYGYIDKVDKYVQVGDVVPAIIKELDIDNNIVVVSIKEAKEDPYLGIVKSLNKGGEYLGVVTGIKDYGIFLTIRKGVNCLCPFPNWANFSPAVGEKFVVRIKSINYDEKKINANLMRPINQRNKYNPTWGLGLEHHHHHH,soluble
2,MGSDKIHHHHHHMFLYELFKEQRKLYNFTQEEFYEGIFKKRAASSFEVHNTHDLKVKDLPVLSDRSMMSILEIIHYAKEEFISPYDEDLNSLFDIFQNNTEKENKDYIYKLYKKSIELKEHSIIYWNLYLIIKIQCSEYDSRIVPTDSQDLSELKKMILSKQKFTLYDYKIVTNLSLVFSYKELQPFLSSLFPLDSNAPTVTSEAAYYLLENITTKLVQNRDFESCTEVLNIYNDLLQKFPSYKYKLNYLITYNLVGYFLTNNMDSLNNSIKYVDLLGDLENVELAKLMKDNIYLMISKKNNGSMSKPDTLLTKENNHIKLNEKKITKRLE,not soluble
3,MNDITQLRQNVLEKAHQEGQQCLKIATDSLDTDFKERQQQGLHDLKAKRQKELKALEQQFQVAQQQLKNQERQALLALKQDSIKELFEASLEKMTNFSKEEELAFLKQVLSKYPEQPLQVTFGEKTGQKFSSYDCAELRLAFPQLSYNQELIPQEAGFLVSLDQVDDNYLYRYLLESVLKEESSRIIDMLFSEI,not soluble
4,MDNEFTSPVYGVKAVPVERIRANSYNPNVTAPPEMRLLELSIWEDGYTMPCVCYYIEKEDVYELVDGYHRYKVMMTSPRIYKRENGLLPVTVIRKDLAERMASTIRHNRARGMHKIELMTRLVGELTRSGMSDSWIRRNLGMDKDELLRLKQISGLAELFADKEFRKAVE,not soluble
5,MIRFCSLYSGSSGNAIFLSTGKTKILIDAGLSGKKITEALVSIGEKPSELSAILVSHEHSDHIKGAGIISRKYDVPIYANENTWAAMENLIGPVSVKNKMYFNTGREFEIGDVIINPFPIPHDAVEPVGFNFFVENSKITTATDIGHMNRELLEYIEGSDFLLIESNHDIEMLKVGPYPWPLKKRILGDKGHLSNEMAGKVVAHLAERGTRCFMLGHLSKENNFPELAYETVRNILKERNIDIERDIKLSVALRDKVGQVVEILEHHHHHH,not soluble
6,MSLNRLDVMILKILAEADRPMGSGRIAELIEERFGEKYSTRSIRYRLQKMEERGLIRRVRRNDRVVGAEITEWGLTMLKTETSSERVGMYISLIEEMAYRCSFDPEVMKGKVVCNISVVKREHLDDFLDAVVETYRAGISPSPLVAVKEDLSDHDVEVGEDEVAVLTVCSVTIDGVLINRGIPVTPVCGGLLYLEDGEPLGMQEYIKYEGSTVDPLHVFVAKGMTQVERVLETGTGLVPANVRYVPWAALEDVEHVERELEKADIRGIVDVPKVEGEILGIPLPPRSLGIVAYGGLVPVALLEERGISTRTYPTRTLVEYSSLEDARRYEGHHHHHH,soluble
7,LVHLSVHNYAIVEHLDLELDRGMSVITGETGAGKSIMLDALGLTLGDRADSGVVRPGADKADILATFDLGDIPEAEAWLKERDLDNDGPCILRRVITAEGRSRSYINGSPCPQGDLKALGELLIDIHSQHEHQSLLKTDTHRRLLDEYAGATDLARQVHLAAQRWRQTRQELERL,not soluble
8,MGSDKIHHHHHHVAVWNPWRGCHRYSEGCKFCYIHKGDMKRGMDTNLIVKSAKFNAPVAVNKQGHYIMKSGQLVYCCFSTDFLLEDADPWRDECWSMMKERPDLHFLFLTKRIERFSQCLPGDWGEGYENVTVGCTVENQHTADERLEIFSKLPIKHKNIALQPMLEAIDIEKYLEGIELVVVGGEYDRNARPFDYEWALAVREQCIRHQVSFSFRQCGTNFIQNGKLRRLNYGMLFKCARESNIDYQAGRE,not soluble
9,MAHHHHHHMEPYASPAAVPPPHVVYDALSKAQKAAPQLRPIPAFEVYKVAREEELAAYRMLCRVLFMHHGTPLPKAQQRILDDMGEDLCIGQTRQGLEKEMAEQDKVLQGIRKSGVLRRRGDFTDGVEEMTVEDYLAEAPKDDGNGLFMPTSKVRRVDGADSGATRATVIAAAAGLGAKRKGNVHAAVSKLAKEAETAGKSLLYASSAQEEQQLIQVLQQKRELLVALREELTEA,not soluble
10,MSLTSTLLRGRTLSFVRWPETIDDHSAWRYEEDGGLLISDGRIIASGAYHDVEKQAGEGAKKIDHRPHLLLPGFIDTHVHFPQMQVIASYGAELLDWLNTYTFPEETKFANAQHGRRIARLFLDEMVRHGTTTVAAYCSVHKASAEAFFAESHDRNMLNIAGKVMMDRNAPDGVLDTPQSGYDDTKALIKEWHGKGRQHYAITPRFAITSSPEQMEMAGALCREHPGLHMQTHLSENHAEIAFTQQLYPRSRDYTDVYEHYGLLGKNSLFGHCIHLSEREADALSQSGSVAVFCPTSNLFLGSGLFDYQRFRRRDKPLRIAAATDVGGGTNYSMLRTMDEGYKVIALNGEKLNPFQSFWQITRGNAEALSVADKIGTLDQGTDADIVVLDARATPAMRLRMETAQTLAQELFLLQTLGDDRAVREVYVAGRAAKSDMANEGHHHHHH,soluble
11,MPLYRTYIEGEFLLGIWKSDETTEQLLASLEHKDWYREKLAVLSEKRKHEWLSVRVLLKALCGEEKEIAYYSSGRPYLKDGSRYISISHTRGYVAVALHSSCEVGMDIEQYGTRVRKVASRFIRSDEEPAMMEGDEVYALLLHWSAKEALFKLMGVEEVDFIRHLRIFPFSLSEEGEFEACEYRTGRQERYRVRYVTHPDFVLTWIIK,not soluble
12,GPLGSYGDAIPEVKAILEAKNEEELVTFTSRWSAEERKELRTQFQDTTGLEFIAFLKKCIKNGPYEDVMALGWDCNISARVNVIKKAMKNVNDFRAIHDVVLIATPDERLKLAQAYKEKTGNDLLQDFVDQIPLTSAASYLCHLAIRENRTPRGSVASDAEVLKHNLIDADEPDHEAVVRLIITSTADEYKEINHRFEVLTGKSVQEAIETRYADKENARGLCIAHYYNLAPARAVAYAFHSAVETQNDDMAYEQAARITGLFHDLHKFAWVHYACWGVMRDDILSRFQSKEANKVNFRDACLMFWKLAK,soluble
13,AKIGLFFGSNTGKTRKVAKSIKKRFDDETMSDALNVNRVSAEDFAQYQFLILGTPTLGEGELPGLSSDAENESWEEFLPKIEGLDFSGKTVALFGLGDQVGYPENYLDALGELYSFFKDRGAKIVGSWSTDGYEFESSEAVVDGKFVGLALDLDNQSGKTDERVAAWLAQIAPEFGLSL,soluble
14,MGSDKIHHHHHHMFAQVHYPESLSGEELDEYLFKGWFRNGQRIFTTNFLNFDQKIYSAVWLRIHLQSIKSIHALDKLAKRNSRFKITIQPASITPEKEALFEQYKTGVDFTASQSLHTLLFGDSTVDIYNTLELLIHDGNKLIGVGYFDTGKDCAAGITSFYDHAYKKNSLGKYIIMQKIKYCIDQQYSYFYPGYFVPNYPAFDYKLSIGTETLEYLSLSKNTWVSIQAFVTNEDPFQVMLKKLKEFQSVCANYGIEQQIYQYSFFEANIIPSLRGLHLFDFPVFVYLFSEQEDVVNPMVVFDVVNQCYHLIECRSIWKADESIQEEGFYSSHLLKMEKHICSALTATEMSTIIMRSIEESSTFR,not soluble
15,MAHHHHHHMLRFTVPALVVFQNAYAPRVLNRMTPDRMELTMLILKERKKKVRYLGSNFQGFNDRVHLFNAQGGVRRGTRYIIETHHNRIQFKHRSRNNSMVDVRAVKMAGSQYDSIGNYTRMTWDNSLCTTNLLSDPNFKRHFKNMPKEETIGVLEEWGVRYILLDEIRKP,not soluble
16,MGSDKIHHHHHHMLLNVKQDFCLAGPGYLLNHSVGRPLKSTEQALKQAFFAPWQESGREPWGQWLGVIDNFTAALASLFNGQPQDFCPQVNLSSALTKIVMSLDRLTRDLTRNGGAVVLMSEIDFPSMGFALKKALPASCELRFIPKSLDVTDPNVWDAHICDDVDLVFVSHAYSNTGQQAPLAQIISLARERGCLSLVDVAQSAGILPLDLAKLQPDFMIGSSVKWLCSGPGAAYLWVNPAILPECQPQDVGWFSHENPFEFDIHDFRYHPTALRFWGGTPSIAPYAIAAHSIEYFANIGSQVMREHNLQLMEPVVQALDNELVSPQEVDKRSGTIILQFGERQPQILAALAAANISVDTRSLGIRVSPHIYNDEADIARLLGVIKANR,not soluble
17,MIEMLLYEDTRMRAVEILRSLPIGNSGVSGLVQLAATLGASVEFRPSIPPFPESLSKKMNKTQKYTSTQMSQKFDNASHSPTK,not soluble
18,MTVEVDEYLNFCGTINEFISAHMLCLGMSVNNYEHRYIWDEILTSKSIKIRPFPFEKTARRSISGMIIKDDYETTLAYNSNMGEKRKNFTISHELIHAMYHLDSENKVFTDTKDTLSYSLADILPEFQANIGASSILLPEPVLINELKKGTPPYFISNRYGISEQAIFMRLLQQMQASFEASYVAAYDTANKIMNGNSKNLAIELGRNLERKILYSNPFYEAITL,not soluble
19,MNLLQCYPTTTVDEMNCEEWGNGTESTQSVAACQGCIELRKEVTDLRQAVNLILPMLPLYPTIGNGFNATGLAAQPTLQHVIQQSLLRKRPVAQTPTVPQPECPGQIRPVLSSPAAALQNVIMLNPWIMGSSLKPASPTLPNGQIPTTIGETSLQGTDDQTVKWIGPSSVDSNGQKTDSSAASAGDNQNIDVIGDGSESPTSSNHSAQEIALMTSQQTFLNALKDSSFLFTNPVPTVETAPPLRVAPPINGTTNGTAKAGGPERKPRKPVNDDIVKIVRNQDLSEENISMFEIPVPKAIASDPTFRPVSEQQIIQQIIQGKKYEEMEVGECMIQLCKKLAEKRVFGPRLMSQTTVAGLNHSNYANLPIKGICYIQHVCRKVLYDKFENEEDFWDKFREAMRKLAARCRRVRHAKKTKHNREEAQAEMLSKRYGEDMPFNLNGAGLIRPKVETVSPEANILNSDQIKSQLESLFAHIPKTESETPLIEIIQQNISLFTHLIRTKVESQSPPLQGPQ,not soluble
20,MGSDKIHHHHHHMEDREQLYTLLAQKDWDAIGKIIYKNKKAKKQDPFLTQVTTFFEAEFFEFTRPLPPAERAKQFEHTNLIIELGQHGFSQAFVDNFVDERLKLMQETQHSALLNYAQTYQHRPLAQRIIASFINTKPEAVAASLRENMTIRATDVQPGKAKTIRLFKSKQEEHFYEAVRRVFPTYHPYPNVALSCVLDYQAIKDSLSEQAKSYFFKAIIDSVVFDVGSGYEPKYFIELDSNFHDAAQAQANDKMKDDIFRAANTKLIRIRPLNSKASSIEEFEKLVREVMRQL,not soluble
21,MKGAARLAPGRPSPAPAWETSDPYAAALRSGHGPLYLRRTDGWLLPLEVERWCARADAVDLDVLDRCEGAVLDVGCGPGRLVAELAARGRTVLGIDVSEAAVTRTVRLGGQSLRRSVFEPLPGEGRWDTVLLMDGNVGIGGDPRTLLGRVAALLAPGGLLIAETAGSDIDERAHVQVVDVTDGDAAGSPFPWARIGTPALLGHARDTGWRPAAQWTSGERRFVALRSSRSASSSAEPPNSTAVTSSQRARKPSADSPVTPWLEHHHHHH,not soluble
22,MSTVPISGRSQIMLVQDSEILSSSALQYKQFLSKVKISKNATSTAQVRRVGQKVAAATMLYLKQNGLGDMASQMKWEFNVVEDKAVNAFCMPGGKIVVYTGLLKLVGSDAELATVISHEVSHAVARHSNERISQEYLRQMGGNILGAAVSNKSAALQTVIGQAYGIGSQVLITLPYNRKQEYEADKIGLVFMAMAGYNPNAAITFWQKMAAQGNGRVEFLSTHPSDANRIAAIRQYMPEAMKHYKSKLEHHHHHH,soluble
23,MSLPPKFWIIIIVKKIDQQSLENAYRLFESGDIHQIEIGSTKGLQQIHHYLFNGLYEFAGKIREQNISKGHFRFANALYLKEALGKIEQMPEDTFENIINKYVEMNIAHPFLEGNGRSTRIWLDLVLKKHLGKVVNWQNVDKTQYLQAMERSPINDLEIRFLLQANLTDDVNNREIIFKGIEQSYYYEGYEKEEGGSHHHHHH,soluble
